The target in the assay is T1, NY-ESO antigen (NY-ESO-1) peptide on HLA-A*02:01 (human).
T1 peptide: SLLMWITQC
Put plainly: multimer staining.

B1: anti-NY-ESO TCR (TCR, V domains shown)
Valpha: KQEVTQIPAALSVPEGENLVLNCSFTDSAIYNLQWFRQDPGKGLTSLLLIQSSQREQTSGRLNASLDKSSGRSTLYIAASQPGDSATYLCAGDNNAGNMLTFGGGTRLMVKP
Vbeta: DAMVIQNPRYQVTQFGKPVTLSCSQTLNHNVMYWYQQKSSQAPKLLFHYYDKDFNNEADTPDNFQSRRPNTSFCFLDIRSPGLGDAAMYLCATSVTDGTALTGELFFGEGSRLTVL
Regarding B1, the binding result is on record as “recognises”.

For the origin of these results see patent US20230143031A1 (published 2023).
